Test results: PMC12809912
Values joined by “and” are separate entries in the source; they are usually repeats but may differ in a detail not shown here. Identical values can stand only once.

Experiments:
[1] = target: mouse monoclonal antibody clone 1A8 (anti-DEFA5); test: indirect ELISA; conditions: chain shown with the change;; parent: est. 2.6; read off a plot
[2] = target: mouse monoclonal antibody clone 4F5 (anti-DEFA5); test: indirect ELISA; conditions: chain shown with the change;; parent: est. 2.2; read off a plot
[3] = target: T1, synthetic DEFA5 peptide residues 54-66 (…) (human); test: SPR; synthetic peptides 54-66 (for 1A8) and 52-66 (for 4F5); who was immobilised is not told (Fig. S5)
T1 sequence (peptide): LRTSGSQARATCY

[4] = target: recombinant His-tagged human alpha-defensin 5 (DEFA5) construct, residues 23-94 behind a soluble fusion partner (human); test: ELISA; indirect ELISA: recombinant DEFA5 coated at 100 ng/mL in carbonate-bicarbonate buffer pH 9.6, antibodies 250-3.9 nM 1 h at room temperature; one-site specific binding fit; two experiments
[5] = target: T2, synthetic DEFA5 peptide residues 52-66 (…) (human); test: SPR; synthetic peptides 54-66 (for 1A8) and 52-66 (for 4F5); who was immobilised is not told (Fig. S5)
T2 sequence (peptide): SALRTSGSQARATCY

recombinant His-tagged human alpha-defensin 5 (DEFA5) construct, residues 23-94 behind a soluble fusion partner (human), sequence (Q01523 23-94): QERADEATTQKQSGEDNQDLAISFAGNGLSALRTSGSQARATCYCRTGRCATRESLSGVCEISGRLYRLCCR

B1: peptide No. 57 of the overlapping library, DEFA5 amino acids 61-75 (…) A1del (peptide)
chain: RATCYCRTGRCATR
A response [1] of 2.6 OD450nm and a response [2] of 2.3 OD450nm were found for B1 in this work.

B2: mouse monoclonal antibody clone 1A8 (anti-DEFA5) (antibody, V domains shown)
VH: QVQLQQSGAELVRPGASVKMSCKALGYTFFDYEMHWMKQTPVYGLEWIGAIHPGSGDTAYNQKFKGKATLTADKSSNTAYMELSSLTSEDSAVYYCTREGTVVAPFDYWGQGTTLTVSS
VL: DVLMTQTPLSLPVSLGDQASISCRSSQSIVHSNGNTYLEWYLQKPGQSPKLLINKVSNRFSGVPDRFSGSGSGTDFTLKISRVEAEDLGVYYCFQGSYVPYTFGGGTKLEIK
In the case of B2, the Kd [3] is reported as 303 µM and the Kd [4] is reported as 0.0421 µM and 0.0455 µM.

B3: mouse monoclonal antibody clone 4F5 (anti-DEFA5) (antibody, V domains shown)
VH: QVQLQQSGAELVRPGASVKMSCKALGYTFFDYEMHWMKQTPVYGLEWIGAIHPGSGDTAYNQKFKGKATLTADKSSNTAYMELSSLTSEDSAVYYCTREGTVVAPFDYWGQGTTLTVSS
VL: DVLMTQTPLSLPVSLGDQASISCRSSQSIVHSNGNTYLEWYLQKPGQSPKLLINKVSNRFSGVPDRFSGSGSGTDFTLKISRVEAEDLGVYYCFQGSYVPYTFGGGTKLEIK
In the case of B3, the Kd [5] is reported as 4800 µM and the Kd [4] is reported as 0.0534 µM and 0.0566 µM.
